Results on one molecule are retold here after patent US10215752B2, “Nanotube array for optical detection of protein-protein interactions” (MASSACHUSETTS INSTITUTE OF TECHNOLOGY, priority 2010, dated 2019).

The assay deals with p16 (Homo sapiens, UniProt Q8N726). Kind of assay: Protein-protein interaction on SWNT/CHI array, Förster distance calculation. As to conditions: distance change after analyte protein p16, Förster equation.
Sequence of p16 (Q8N726 with tags, fused parts or gaps): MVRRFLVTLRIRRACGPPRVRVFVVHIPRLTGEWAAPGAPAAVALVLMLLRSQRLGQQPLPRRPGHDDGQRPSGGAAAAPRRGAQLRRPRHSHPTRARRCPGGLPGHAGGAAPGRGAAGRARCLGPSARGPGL

Protocol: Reaction mixtures for cell-free protein expression were added to each array wells. The fluorescent intensities of each SWNT/CHI well were taken to track the intensity changes. To initiate protein synthesis, 1 μl PCR-amplified DNAs were added to each well a humidified chamber at 37° C. for 2 hours. The arrays were washed three times for 10 min each with PBS buffer (pH 7.4, 100 mM) at RT and then PL spectra were taken. To analyze protein-protein interaction on SWNT/XHI array, anti-Histag antibody or cell-free expressed protein mixtures were added to each well and then PL spectra were taken to compare the intensity change.
Near-infrared photoluminescence spectra were acquired using 785 nm excitation and an Acton SP-150 spectrograph coupled to a Princeton instruments OMA V InGaAs detector or with Kaiser Holospec f/1.8 Imaging Spectrograph (Kaiser Optical).

B1: CDK4: human derived protein (ExPASy P11802), on-chip cell-free expressed with His-tag (protein, UniProt P11802 2-303, looked up)
Cyclin-dependent kinase 4: ATSRYEPVAEIGVGAYGTVYKARDPHSGHFVALKSVRVPNGGGGGGGLPISTVREVALLRRLEAFEHPNVVRLMDVCATSRTDREIKVTLVFEHVDQDLRTYLDKAPPPGLPAETIKDLMRQFLRGLDFLHANCIVHRDLKPENILVTSGGTVKLADFGLARIYSYQMALTPVVVTLWYRAPEVLLQSTYATPVDMWSVGCIFAEMFRRKPLFCGNSEADQLGKIFDLIGLPPEDDWPRDVSLPRGAFPPRGPRPVQSVVPEMEESGAQLLLEMLTFNPHKRISAFRALQHSYLHKDEGNPE
modifications: His-tag
As to B1, the Δd2 is reported as 0.06338.
